Assay results published in patent US20260184791A1 (KYMAB, published 2026).
Each block holds one binder with its values, some of them ahead of it.

Assays:
[1] = target: T1, human ICOS expressed on the surface of cells (human, UniProt Q9Y6W8 21-199); assay: flow cytometry, CHO-S cells expressing ICOS, purified IgG1
T1 construct: also called hICOS; Human ICOS CHO
T1 sequence: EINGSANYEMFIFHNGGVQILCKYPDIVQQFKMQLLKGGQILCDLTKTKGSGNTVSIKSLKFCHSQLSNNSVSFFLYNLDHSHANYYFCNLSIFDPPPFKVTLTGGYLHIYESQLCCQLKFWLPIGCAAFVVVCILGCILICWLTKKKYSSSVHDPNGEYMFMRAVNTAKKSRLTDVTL

[2] = target: T2, mouse ICOS expressed on the surface of CHO-S cells (mouse, UniProt Q9WVS0 21-141); assay: as above
T2 construct: The construct expressed in CHO-S cells is not specified; also called mICOS; Mouse ICOS CHO
T2 sequence: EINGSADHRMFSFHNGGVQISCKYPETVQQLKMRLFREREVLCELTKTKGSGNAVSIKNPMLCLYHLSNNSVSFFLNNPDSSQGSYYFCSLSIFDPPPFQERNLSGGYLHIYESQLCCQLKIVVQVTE

[3] = target: T1, human ICOS expressed on the surface of …; assay: Receptor occupancy by chip cytometry on ICOS+ CD4 memory cells (ICOS+CD3+CD4+FoxP3-CD45RA-) from blood of patients dosed with KY1044 every 3 weeks; samples at C1D1, C1D8, C2D1 and C2D8

fold above the average of geomean of the negative control [1]: > 10 fold
fold above the average of geomean of the negative control [2]: > 10 fold
B1: CL-61091 (antibody, human IgG1, V domains shown)
VH: QVQLMQSGTEVKKPGASVKVSCKTSGYTFTTYGITWVRQAPGQGLEWMGWISAYSGDTDYAQKFQGRVTVTTDTSTNTAYMELRSLKSDDTAVYYCARSSGWPHHYGMDVWGQGTTVTVSS
VL: DIVMTQSPLSLPVTPGEPASISCRSSQSLLHSNGFNYFDWYLQKPGQSPQLLIFLVSNRASGVPDRFSGSGSGTDFTLKISRVEAEDVGIYYCMQALQTPLTFGGGTKVEIK

binding result [3]: binds
B2: KY1044 (antibody, human IgG1, kappa, V domains shown)
VH: EVQLVESGGGVVRPGGSLRLSCVASGVTFDDYGMSWVRQAPGKGLEWVSGINWNGGDTDYSDSVKGRFTISRDNAKNSLYLQMNSLRAEDTALYYCARDFYGSGSYYHVPFDYWGQGILVTVSS
VL: EIVLTQSPGTLSLSPGERATLSCRASQSVSRSYLAWYQQKRGQAPRLLIYGASSRATGIPDRFSGDGSGTDFTLSISRLEPEDFAVYYCHQYDMSPFTFGPGTKVDIKR
notes: also called STIM003; SAR445256

fold above the average of geomean of the negative control [1]: > 10 fold
fold above the average of geomean of the negative control [2]: > 10 fold
B3: CL-74570 (antibody, human IgG1, V domains shown)
VH: EVQLVESGGGVIRPGGSLRLSCAASGFTFDDYGMSWVRQAPGKGLEWVSGINWIGDNTDYADSVKGRFTISRDNAKNSLYLQMNSLRAEDTALYYCARDYFGSGSYYNVPF
VL: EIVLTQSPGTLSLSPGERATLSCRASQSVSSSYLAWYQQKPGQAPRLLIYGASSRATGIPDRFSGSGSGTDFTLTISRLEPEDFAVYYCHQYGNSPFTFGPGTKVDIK
